Data on one molecule can be found in publication PMC7896311, “Structure of the SARS-CoV-2 RNA-dependent RNA polymerase in the presence of favipiravir-RTP”.

This data set has as its target nsp12 (RNA-dependent RNA polymerase);nsp7;nsp8 (SARS-CoV-2;SARS-CoV-2;SARS-CoV-2, UniProt P0DTD1;P0DTD1;P0DTD1 4393-5324;3860-3942;3943-4140, ||). The data set is described as follows: cryo-EM structure (2.5 A). Conditions: protein: recombinant;recombinant;recombinant; tags: C-terminal TEV site-double StrepII on the nsp5-nsp7-nsp8-nsp12 polyprotein;;; copies: 1;1;2.

B1: primer:template RNA duplex (dsRNA)
RNA 1: CAGUGCUAUGUGAGAUUAAGUUAU
RNA 2: UUUUUCAUAACUUAAUCUCACAUAGCACUG
Take B1: the binding result is given as “binds”.
